For 1 molecule, Kd results are on record in patent US20190367620A1 (Merck KGaA, published 2019).

For experiment [1], the target named is T1, FGFR1 D2 point mutant E47A (human, UniProt P11362 22-254).
T1 chain: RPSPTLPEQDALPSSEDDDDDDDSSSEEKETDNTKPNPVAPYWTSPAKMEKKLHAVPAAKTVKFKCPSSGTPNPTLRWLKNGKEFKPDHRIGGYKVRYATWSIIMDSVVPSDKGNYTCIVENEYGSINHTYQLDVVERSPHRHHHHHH
The experiment is described as follows: SPR as in Example 1.8. Summed up:
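Anti-FGFR1 mAb captured via immobilised anti-human Fc to ~200 RU; 2-fold dilutions of His-tagged FGFR1 (wild-type or HEK-expressed point mutants, Ala→Gly for native Ala) injected at 25° C in HBS-EP+. kon/koff from 1:1 Langmuir fit; KD = koff/kon.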

For experiment [2], the target named is T2, human FGFR1b-IIIb extracellular domain with a HIS tag (human).
T2 construct: also called huFGFR1b-IIIb; hFGFR1b-IIIb
T2 chain: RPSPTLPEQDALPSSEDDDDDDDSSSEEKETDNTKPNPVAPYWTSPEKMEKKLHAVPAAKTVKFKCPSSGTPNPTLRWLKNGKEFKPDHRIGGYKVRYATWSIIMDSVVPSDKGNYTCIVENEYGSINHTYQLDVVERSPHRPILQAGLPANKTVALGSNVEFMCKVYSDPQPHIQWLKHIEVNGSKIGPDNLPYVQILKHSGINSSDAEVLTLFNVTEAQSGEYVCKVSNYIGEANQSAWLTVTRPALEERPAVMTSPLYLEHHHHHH
The experiment is described as follows: SPR (Biacore 4000), antibody captured, His-tagged FGFR1 injected; no unit in the table, nM inferred from paragraph 90. The method, then: (§1) Binding affinities of anti-FGFR1 antibodies to FGFR1 were measured by Surface Plasmon Resonance (SPR) using a GE Healthcare BIAcore 4000 instrument as follows. Goat anti-human Fc antibody (Jackson ImmunoResearch Laboratories #109-005-098) was first immobilized on BIAcore carboxymethylated dextran CM5 chip using direct coupling to free amino groups following the procedure described by the manufacturer. Antibodies were then captured on the CM5 biosensor chip to achieve approximately 200 response units (RU). Binding measurements were performed using the running HBS-EP+ buffer. A 2-fold dilution series of His-tagged FGFR1 proteins were injected at a flow rate of 30 μl/min at 25° C. Association rates (kₒₙ, per mol/s) and dissociation rates (koff, per s) were calculated using a simple 1:1 Langmuir binding model (Biacore 4000 Evaluation Software). The equilibrium dissociation constant (KD, mol) was calculated as the ratio of koff/kₒₙ.
In general terms: SPR reads the build-up and loss of mass on a sensor chip optically.

Experiment [3] has as its target T3, human FGFR1b-IIIc extracellular domain with a HIS tag (human, UniProt P11362 22-376).
T3 construct: also called huFGFR1b-IIIc; hFGFR1b-IIIc
T3 sequence: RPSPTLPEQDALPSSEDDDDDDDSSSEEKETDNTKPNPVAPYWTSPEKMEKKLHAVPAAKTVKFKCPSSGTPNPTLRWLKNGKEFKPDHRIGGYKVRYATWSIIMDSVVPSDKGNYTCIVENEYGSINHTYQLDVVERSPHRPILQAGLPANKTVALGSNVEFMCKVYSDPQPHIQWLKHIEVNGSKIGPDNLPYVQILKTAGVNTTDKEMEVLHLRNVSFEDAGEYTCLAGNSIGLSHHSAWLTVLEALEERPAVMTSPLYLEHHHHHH
The description is as above. Here is the method: as §1

Experiment [4] deals with T4, muFGFR1a-IIIc (mouse, UniProt P16092 22-376).
T4 construct: Bought, His6 tag; also called mouse FGFR1a-IIIc His6-tagged; murine FGFR1a-IIIc
T4 sequence (looked up): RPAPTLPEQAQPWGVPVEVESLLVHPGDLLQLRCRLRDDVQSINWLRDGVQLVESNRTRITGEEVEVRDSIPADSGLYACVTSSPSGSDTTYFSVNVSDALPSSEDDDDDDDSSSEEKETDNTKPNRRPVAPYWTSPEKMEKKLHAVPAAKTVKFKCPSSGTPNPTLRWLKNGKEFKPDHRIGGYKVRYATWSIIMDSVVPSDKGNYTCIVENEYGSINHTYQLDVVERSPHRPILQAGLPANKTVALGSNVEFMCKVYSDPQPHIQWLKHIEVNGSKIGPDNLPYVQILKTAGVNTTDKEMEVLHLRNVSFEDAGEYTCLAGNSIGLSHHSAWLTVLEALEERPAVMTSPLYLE
The description is as above. Here is the method: as §1

Experiment [5] addresses T5, ratFGFR1a-IIIc (rat, UniProt Q04589 22-376).
T5 construct: Bought, His6 tag; also called rat FGFR1a-IIIc His6-tagged
T5 sequence (looked up): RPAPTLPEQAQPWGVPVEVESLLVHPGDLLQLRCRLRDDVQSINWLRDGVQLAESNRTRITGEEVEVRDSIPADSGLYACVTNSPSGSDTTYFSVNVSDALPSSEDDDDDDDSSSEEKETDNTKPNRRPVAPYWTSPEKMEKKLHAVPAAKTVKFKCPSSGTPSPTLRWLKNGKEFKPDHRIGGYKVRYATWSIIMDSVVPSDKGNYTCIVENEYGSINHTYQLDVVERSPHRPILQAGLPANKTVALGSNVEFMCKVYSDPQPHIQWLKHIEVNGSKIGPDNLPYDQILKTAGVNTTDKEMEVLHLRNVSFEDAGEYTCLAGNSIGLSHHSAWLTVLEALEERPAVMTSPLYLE
The description is as above. Here is the method:
as §1

Experiment [6] addresses T6, rheFGFR1a-IIIc (rhesus monkey).
T6 construct: Bought, His6 tag; also called rhesus monkey FGFR1a-IIIc His6-tagged
The description is as above. The method, then: as §1

B1: mAb #A08 (antibody, V domains shown)
VH: EVQLQESGPGLVKPSGTLSLTCAVSGGSISSNNWWSWVRQPPGKGLEWIGEIYHSGSTSYNPSLKSRVTISVDKSKNQFSLKLNSVTAADTAVYYCARGTDWFDPWGQGTLVTVSS
VL: QAVLTQPPSVSVAPGQTARITCGGNNIGSESVHWYQQKPGQAPVLVVYDDSDRPSGIPERFSGSNSGNTATLTISRVEAGDEADYYCQVWDSTSDHRVFGGGTKLTVL
notes: Only variable domains are tied to the name mAb #A08 (hit); also called #A08 hit; mAb #08
As to B1, the dissociation constant (Kd) (as a rule, the equilibrium constant for the complex coming apart) in experiment [1] worked out at 0.26 nM; in experiment [2], 0.01 nM; in experiment [3] it was 0.017 nM; in experiment [4], 2.3 nM; in experiment [5] it was 2.2 nM; in experiment [6], 0.46 nM.
